Laboratory results: the supplement of paper PMC9170038

Tested on: MS2 coat protein
Assay: apparent KD of MS2 coat protein; designed switch direction (-1 OFF switch, 1 ON switch): -1; higher = weaker reporter binding
Procedure, shortened: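 The buffer was Tris-HCl pH 7.5 with KCl, MgCl2, BSA, DTT, tRNA and Tween-20. In it, SNAP-549-labelled MS2 coat protein was titrated in doubling steps from 0.7 or 1.5 nM to 3 µM over chip-bound RNA switches transcribed by stalled E. coli RNA polymerase on Illumina chips. Apparent KD is the per-design median over clusters of curve fits to normalised fluorescence.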

[1] = Eterna round: R95, input ligand: microRNA oligo, concentration not stated
[2] = input ligand: microRNA oligo, concentration not stated
[3] = Eterna round: R95, input ligand: FMN 200 uM
[4] = Eterna round: R95, input ligand: none

Row | Sequence | apparent KD of MS2 coat protein [1] [µM] | apparent KD of MS2 coat protein (input ligand: FMN 200 uM) [µM] | apparent KD of MS2 coat protein [2] [µM] | apparent KD of MS2 coat protein (input ligand: none) [µM] | apparent KD of MS2 coat protein [3] [µM] | apparent KD of MS2 coat protein [4] [µM]
1 | GCAUCCAAUGUGAGGAUAUACCUCUGGAUACAUAGGUAGAAGGCACAUGAGGAUCACCCAUGUUCCUAGGAUGC [Fiskers BMX 4 - 31] (puzzle: Brourd's mod of Exclusion 4) | 0.0329 | – | – | – | – | –
2 | UCGGCGCGAGGAUAUACGUUUGCUUUUUUGGGUCGUUGCGUACAUGAGGAUCACCCAUGUAGAAGGCGCGCCGC [Apr-15 SS2-25] (puzzle: Exclusion 2) | 0.0241 | – | – | – | – | –
3 | GGUGCGUAUGUGAGGAUAUGCUGGUCCUUGGAUCUGCAGAAGGCACAUGAGGAUCACCCAUGUGGUGUCGUACC [salish99_Bmod_Ex4_024] (Eterna round: R96, puzzle: Brourd's mod of Exclusion 4) | – | 0.105 | 0.411 | 0.506 | – | –
4 | CAGUACUGAGGAUAUACAUGAGGAUCACCCAUGUGUUCCAGCUAGGAAACUAGCAAAUGUAGAAGGCAGUACUG [salish99_ex3_r3_089 (STABLE!)] (puzzle: Exclusion 3) | 0.217 | – | – | – | 0.0941 | 0.234
5 | GAUUAUGCGAGCUUUAGGGACAUGAGGAUCACCCAUGUUCGUCUUAUUAGUCUGGAUGCACUGACAUACCUAAAUCU [JMF 81] (puzzle: Sensor v3, turn-off variant 1) | 0.0252 | – | – | – | 0.0184 | 0.0191
6 | AAAUAACUAGGAUAUCGAGGCACAGACAUGAGGAUCACCCAUGUGUGGUCUUCGUGCUUACGAGAAGGAGUACGGC [Teceri] (puzzle: Exclusion 5) | 0.168 | – | – | – | 0.0556 | 0.0833
7 | AAUAAACGAGGAUAUACUAAAAUAUGAAUAAAAUAAAUAAAACAUGAGGAUCACCCAUGUAGAAGGCGUAAUAA [JMF's Not so obvious solution 4] (puzzle: Exclusion 2) | 0.0234 | – | – | – | 0.0213 | 0.0214
8 | AGUAGAUCUACGCUUGCGUGGAUCUGCAAAGCAGGUGUUACAUGAGGAUCACCCAUGUCCUCAUUUGCUCGUCUUAG [JL turnoff v2 99.08] (puzzle: Sensor v3, turn-off variant 2) | 0.563 | – | – | – | 0.0718 | 0.0651
9 | UACACUGCAUGAGGAUCAAACAUGAGGAUCACCCAUGUAUAGCAGGCUUUUUGCACGUCUUAUAAUUAUGUAGUGUA [Electric Eye 15 - Jieux - Sensor, turn-off variant 1] (Eterna round: R97, puzzle: Sensor, turn-off variant 1) | – | 0.0142 | – | 0.0144 | – | –
10 | GACUUGUCAGGAUAUCUUACAUAAACAUCGUAGUUACAAUUGGAGAAGGGACAUGAGGAUCACCCAUGUUUGCC [tap-tap-tappy30] (Eterna round: R97, puzzle: Exclusion 4) | – | 0.0168 | – | 0.0175 | – | –
11 | UUUAACAAGCCAGAUCCUAACAUGAGGAUCACCCAUGUGCUCGUCUGAUUUUGUACUAUCAUGUGAGUGAUAGUAUU [Level Boss var2-04] (puzzle: Sensor v3, turn-off variant 1) | 0.683 | – | – | – | 0.174 | 0.308
12 | CUUCCACGGAUUGUAUUAAACAUGAGGAUCACCCAUGUCCGGGAUUUAAAACAAGCCCUUUGCUCAGUCCUUAUUGC [Eternabot (L1) Solution 10] (Eterna round: R97, puzzle: Sensor, turn-off variant 1) | – | 0.0222 | – | 0.0259 | – | –
13 | AAUCCACAUGAGGAUCACCCAUGUGAGGAUAUGUCCAUAUUCGGCAAAUCGGAUAUGGACAGAAGGCACAUAAA [JR_Exclusion1_Sub013] (Eterna round: R96, puzzle: Exclusion 1) | – | 0.0995 | 0.021 | 0.0265 | – | –
14 | CAGUACUGAGGAUAUACAUGAGGAUCACCCAUGUGUCCUAGCUAGGAAACUAGCAAAAGUAGAAGGCAGUACUG [Fiskers Ex 3 828 mod 5] (puzzle: Exclusion 3) | 0.0212 | – | – | – | 0.249 | 0.0229
15 | UUUUUAUAUGAAGGAUAUACUUAACAUGAGGAUCACCCAUGUGGUGUUGUGAGUGAGAGAGUUUAGUAGAAGGUCAAUUAUUUU [JMF's solution 5] (Eterna round: R96, puzzle: Exclusion NG 2) | – | 0.714 | 0.28 | 0.3 | – | –
16 | AACCUGAGGCUUUGCUUUAGGUCUACAUGAGGAUCACCCAUGUAGGAUAUGGUAGGCUUUGCUUACCAGAAGGACAUGGUAAUU [JL ENG3 1.13] (Eterna round: R96, puzzle: Exclusion NG 3) | – | 0.323 | 0.0477 | 0.0655 | – | –
17 | ACAAGCAGAGGUGUGCGACACAUGAGGAUCACCCAUGUCGUCUGCCUCUGUGCAGAGGCUUUUUGCUCGUACUUAUU [Sensor V1 S3] (Eterna round: R97, puzzle: Sensor, turn-off variant 1) | – | 0.0201 | – | 0.0193 | – | –

Row | Sequence | apparent KD of MS2 coat protein [1] [µM] | apparent KD of MS2 coat protein (input ligand: FMN 200 uM) [µM] | apparent KD of MS2 coat protein [2] [µM] | apparent KD of MS2 coat protein (input ligand: none) [µM] | apparent KD of MS2 coat protein [3] [µM] | apparent KD of MS2 coat protein [4] [µM]
18 | CCCGGGCGAGGAUAUACAUGAGGAUCACCCAUGUUGGGCUAGUUGGUGGCUCCUCGCGGUAGAAGGCGCACGCG [Edna] (puzzle: Exclusion 3) | 0.0645 | – | – | – | 0.123 | 0.0746
19 | AGCGAGGUAGGAUAUACAUGAGGAUCACCCAUGUGCUUGCAUGGCGUGGAACGUCGAGGUAGAAGGGCCAUGCC [EX3 #73] (Eterna round: R97, puzzle: Exclusion 3) | – | 0.0245 | – | 0.0278 | – | –
20 | GGACAGGGAGGAUAUACUUGAGGAUCACCCAAGUCGUAUAAUCGAUGAUCACGCCGAAGUAGAAGGCCCAAAAC [EX3 #82] (Eterna round: R97, puzzle: Exclusion 3) | – | 0.0361 | – | 0.353 | – | –
21 | GUGUACGGAGGAUAUAUGUGGGCAGCAUACGCUGCAGCUUCACAUGAGGAUCACCCAUGUAGAAGGCUGUACAC [Mat - Exclusion 2 - Mod of Hyphema - D102] (puzzle: Exclusion 2) | 0.0214 | – | – | – | – | –
22 | UCGUAGGAAGGAUAUGCAUGCUUUGAUAAAUCCAGGCCUGGACAUGAGGAUCACCCAUGUAGAAGGUCCACGGA [EX2 B.11] (Eterna round: R97, puzzle: Exclusion 2) | – | 0.0366 | – | 0.0314 | – | –
23 | AUGGUAUUAGGAUAUACAUGAGGAUCACCCAUGUGGCAUCAUGCGGUGCCGACCUACUGUAGAAGGAGUGUAAA [Eternabot (L1) Solution 64] (Eterna round: R97, puzzle: Exclusion 3) | – | 0.0513 | – | 0.059 | – | –
24 | UAUUUGUGAGGAUAUGAGUCGUAGAACAAUAGUACUACGUCUCAGAAGGCACAUGAGGAUCACCCAUGUACCUC [Fiskers Ex 4 Super Stable 44 mod 30] (puzzle: Exclusion 4) | 0.0169 | – | – | – | – | –
25 | AACCUAUGAGGAUAUACAUGAGGAUCACCCAUGUGUGAGCGUAUCUCAUCACCAAAUUGUAGAAGGCAUGGCGG [Eternabot (L1) Solution 38] (Eterna round: R97, puzzle: Exclusion 3) | – | 0.0683 | – | 0.0414 | – | –
26 | AUAUUUAGCUUUUUGUGAAACAUGAGGAUCACCCAUGUCCUCAUACCUGGACAUUUAAGUCUAGGAGCUCGUCUUAU [Last end dangle 2] (Eterna round: R97, puzzle: Sensor, turn-off variant 1) | – | 0.479 | – | 0.612 | – | –
27 | CCGGAAAUGAAGGAUAUAGGAGUCGAUAGACUCCUAGAAGGUCAUACAUGAGGAUCACCCAUGUGUCCUACCGG [Fiskers Ex 6 - 74] (puzzle: Exclusion 6) | 0.0129 | – | – | – | – | –
28 | GAGUGACAUGAGGAUCACCCAUGUGAGGAUAUCGGACGGACCAAAUUAACAAUAAAAGCGAGAAGGCACAUCGG [Exclusion 1 V12] (puzzle: Exclusion 1) | 0.0576 | – | – | – | 0.0647 | 0.0665
29 | AACACAUGAGGAUAUACAUGAGGAUCACCCAUGUUGUCACUACACCCGGGUGCCUGGUGUAGAAGGCAUGAAGA [Eternabot (Original) Solution 30] (Eterna round: R97, puzzle: Exclusion 3) | – | 0.0712 | – | 0.0341 | – | –
30 | UAGAUGGGAGGAUAUGCGUAGAUACGGAUUCGUGUGGUGCUACAUGAGGAUCACCCAUGUAGAAGGCCCGUCUU [JL-ex2-2.27 Mayanne mod] (puzzle: Exclusion 2) | 0.012 | – | – | – | – | –
31 | CCCGUCGAUGUAGGAUAUGCCCGGGUCUCCCGGGCAGAAGGACAUGAGGAUCACCCAUGUUCAUGAGCAUCAGCCAUGAAUGGG [Double but mutated MS2] (Eterna round: R96, puzzle: Exclusion NG 1) | – | 0.0128 | 0.0127 | 0.0202 | – | –
32 | UCGCUGCGAGGAUAUACGUUUGCGCGCUUUCGUUUGCGCGUACAUGAGGAUCACCCAUGUAGAAGGCGCGCUGC [Apr-15 SS2-7] (puzzle: Exclusion 2) | 0.0131 | – | – | – | – | –
33 | AGAGAGUCAGGAUAUCGAAGGUAGUGGAGAGGAGUGUGGUACGAGAAGGGACAUGAGGAUCACCCAUGUAGGAG [JR_Exclusion4)Sub008] (puzzle: Exclusion 4) | 0.0354 | – | – | – | 0.031 | 0.0332
34 | ACAUGCUUAAUCUGUAUGAACAUGAGGAUCACCCAUGUAUAAGGGAAUUCUUUUGGGUUUUUUAUUGCUCGUCUUAU [JR_STOV1_Sub022] (Eterna round: R97, puzzle: Sensor, turn-off variant 1) | – | 0.379 | – | 0.36 | – | –
